The assay addresses HA head of H1N1 A/Solomon Islands/3/2006 (Influenza A virus, A/Solomon Islands/3/2006 (H1N1)). Briefly: BLI. On the technique in general: In BLI a coated tip is dipped into the sample, and binding shifts an interference pattern.

As for CH65 Fab, the koff (usually the rate constant with which the complex falls apart) was 0.013 s⁻¹ and the kon (in general, the second-order rate constant of association) is 42900 M⁻¹ s⁻¹.

These data come from PMC4368477.
